# The Human Domainome abundance scans (Beltran et al. 2025)
# ± gives the uncertainty stated by the source.
# B1: COUP transcription factor 1, residues 83 to 159; numbered along this chain, P10589 (parent)
# chain: HIECVVCGDKSSGKHYGQFTCEGCKSFFKRSVRRNLTYTCRANRNCPIDQHHRNQCQYCRLKKCLKVGMRREAVQRG
# Variants of: B1
# Test: abundance fitness (aPCA) (normalised: wild type 0, dead -1); higher = more abundant; growth selection in yeast, the domain comes from the species named
# Settings: Homo sapiens
row,Variant,abundance fitness
1,HIECVVCGDKSSGKHYGQFTCEGCKSFFKRSVRRNLTYTCRANRNCPIDQHHRNQCQYCRLKLCLKVGMRREAVQRG [K63L],-0.337 ± 0.049
2,HIECVVCGDKSSGKHYGQFTCEGCKSFFKRSVRRNLTYTCRANRNCPIDQHHRNQCQYCRLKMCLKVGMRREAVQRG [K63M],-0.048 ± 0.047
3,HIECVVCGDKSSGKHYGQFTCEGCKSFFKRSVRRNLTYTCRANRNCPIDQHHRNQCQYCRLKNCLKVGMRREAVQRG [K63N],-0.626 ± 0.14
4,HIECVVCGDKSSGKHYGQFTCEGCKSFFKRSVRRNLTYTCRANRNCPIDQHHRNQCQYCRLKPCLKVGMRREAVQRG [K63P],-0.647 ± 0.095
5,HIECVVCGDKSSGKHYGQFTCEGCKSFFKRSVRRNLTYTCRANRNCPIDQHHRNQCQYCRLKQCLKVGMRREAVQRG [K63Q],-0.139 ± 0.047
6,HIECVVCGDKSSGKHYGQFTCEGCKSFFKRSVRRNLTYTCRANRNCPIDQHHRNQCQYCRLKRCLKVGMRREAVQRG [K63R],-0.094 ± 0.036
7,HIECVVCGDKSSGKHYGQFTCEGCKSFFKRSVRRNLTYTCRANRNCPIDQHHRNQCQYCRLKSCLKVGMRREAVQRG [K63S],-0.464 ± 0.059
8,HIECVVCGDKSSGKHYGQFTCEGCKSFFKRSVRRNLTYTCRANRNCPIDQHHRNQCQYCRLKTCLKVGMRREAVQRG [K63T],-0.356 ± 0.057
9,HIECVVCGDKSSGKHYGQFTCEGCKSFFKRSVRRNLTYTCRANRNCPIDQHHRNQCQYCRLKVCLKVGMRREAVQRG [K63V],-0.249 ± 0.045
10,HIECVVCGDKSSGKHYGQFTCEGCKSFFKRSVRRNLTYTCRANRNCPIDQHHRNQCQYCRLKWCLKVGMRREAVQRG [K63W],-0.391 ± 0.053
11,HIECVVCGDKSSGKHYGQFTCEGCKSFFKRSVRRNLTYTCRANRNCPIDQHHRNQCQYCRLKYCLKVGMRREAVQRG [K63Y],-0.277 ± 0.097
12,HIECVVCGDKSSGKHYGQFTCEGCKSFFKRSVRRNLTYTCRANRNCPIDQHHRNQCQYCRLKKALKVGMRREAVQRG [C64A],-0.203 ± 0.043
13,HIECVVCGDKSSGKHYGQFTCEGCKSFFKRSVRRNLTYTCRANRNCPIDQHHRNQCQYCRLKKDLKVGMRREAVQRG [C64D],-0.893 ± 0.18
14,HIECVVCGDKSSGKHYGQFTCEGCKSFFKRSVRRNLTYTCRANRNCPIDQHHRNQCQYCRLKKELKVGMRREAVQRG [C64E],-0.831 ± 0.099
15,HIECVVCGDKSSGKHYGQFTCEGCKSFFKRSVRRNLTYTCRANRNCPIDQHHRNQCQYCRLKKFLKVGMRREAVQRG [C64F],-0.903 ± 0.24
16,HIECVVCGDKSSGKHYGQFTCEGCKSFFKRSVRRNLTYTCRANRNCPIDQHHRNQCQYCRLKKGLKVGMRREAVQRG [C64G],-0.669 ± 0.049
17,HIECVVCGDKSSGKHYGQFTCEGCKSFFKRSVRRNLTYTCRANRNCPIDQHHRNQCQYCRLKKHLKVGMRREAVQRG [C64H],-0.577 ± 0.16
18,HIECVVCGDKSSGKHYGQFTCEGCKSFFKRSVRRNLTYTCRANRNCPIDQHHRNQCQYCRLKKILKVGMRREAVQRG [C64I],-0.928 ± 0.25
19,HIECVVCGDKSSGKHYGQFTCEGCKSFFKRSVRRNLTYTCRANRNCPIDQHHRNQCQYCRLKKKLKVGMRREAVQRG [C64K],-0.866 ± 0.13
20,HIECVVCGDKSSGKHYGQFTCEGCKSFFKRSVRRNLTYTCRANRNCPIDQHHRNQCQYCRLKKLLKVGMRREAVQRG [C64L],-0.513 ± 0.06
21,HIECVVCGDKSSGKHYGQFTCEGCKSFFKRSVRRNLTYTCRANRNCPIDQHHRNQCQYCRLKKMLKVGMRREAVQRG [C64M],-0.059 ± 0.049
22,HIECVVCGDKSSGKHYGQFTCEGCKSFFKRSVRRNLTYTCRANRNCPIDQHHRNQCQYCRLKKQLKVGMRREAVQRG [C64Q],-0.8 ± 0.13
23,HIECVVCGDKSSGKHYGQFTCEGCKSFFKRSVRRNLTYTCRANRNCPIDQHHRNQCQYCRLKKRLKVGMRREAVQRG [C64R],-0.908 ± 0.077
24,HIECVVCGDKSSGKHYGQFTCEGCKSFFKRSVRRNLTYTCRANRNCPIDQHHRNQCQYCRLKKSLKVGMRREAVQRG [C64S],-0.475 ± 0.062

row,Variant,abundance fitness
1,HIECVVCGDKSSGKHYGQFTCEGCKSFFKRSVRRNLTYTCRANRNCPIDQHHRNQCQYCRLKKTLKVGMRREAVQRG [C64T],-0.758 ± 0.11
2,HIECVVCGDKSSGKHYGQFTCEGCKSFFKRSVRRNLTYTCRANRNCPIDQHHRNQCQYCRLKKVLKVGMRREAVQRG [C64V],-0.823 ± 0.072
3,HIECVVCGDKSSGKHYGQFTCEGCKSFFKRSVRRNLTYTCRANRNCPIDQHHRNQCQYCRLKKWLKVGMRREAVQRG [C64W],-0.675 ± 0.077
4,HIECVVCGDKSSGKHYGQFTCEGCKSFFKRSVRRNLTYTCRANRNCPIDQHHRNQCQYCRLKKYLKVGMRREAVQRG [C64Y],-0.537 ± 0.12
5,HIECVVCGDKSSGKHYGQFTCEGCKSFFKRSVRRNLTYTCRANRNCPIDQHHRNQCQYCRLKKCAKVGMRREAVQRG [L65A],-0.228 ± 0.044
6,HIECVVCGDKSSGKHYGQFTCEGCKSFFKRSVRRNLTYTCRANRNCPIDQHHRNQCQYCRLKKCCKVGMRREAVQRG [L65C],-0.265 ± 0.06
7,HIECVVCGDKSSGKHYGQFTCEGCKSFFKRSVRRNLTYTCRANRNCPIDQHHRNQCQYCRLKKCDKVGMRREAVQRG [L65D],0.015 ± 0.055
8,HIECVVCGDKSSGKHYGQFTCEGCKSFFKRSVRRNLTYTCRANRNCPIDQHHRNQCQYCRLKKCEKVGMRREAVQRG [L65E],0.06 ± 0.04
9,HIECVVCGDKSSGKHYGQFTCEGCKSFFKRSVRRNLTYTCRANRNCPIDQHHRNQCQYCRLKKCFKVGMRREAVQRG [L65F],-0.039 ± 0.078
10,HIECVVCGDKSSGKHYGQFTCEGCKSFFKRSVRRNLTYTCRANRNCPIDQHHRNQCQYCRLKKCGKVGMRREAVQRG [L65G],-0.392 ± 0.039
11,HIECVVCGDKSSGKHYGQFTCEGCKSFFKRSVRRNLTYTCRANRNCPIDQHHRNQCQYCRLKKCHKVGMRREAVQRG [L65H],0.102 ± 0.07
12,HIECVVCGDKSSGKHYGQFTCEGCKSFFKRSVRRNLTYTCRANRNCPIDQHHRNQCQYCRLKKCKKVGMRREAVQRG [L65K],-0.342 ± 0.06
13,HIECVVCGDKSSGKHYGQFTCEGCKSFFKRSVRRNLTYTCRANRNCPIDQHHRNQCQYCRLKKCMKVGMRREAVQRG [L65M],-0.069 ± 0.047
14,HIECVVCGDKSSGKHYGQFTCEGCKSFFKRSVRRNLTYTCRANRNCPIDQHHRNQCQYCRLKKCNKVGMRREAVQRG [L65N],-0.322 ± 0.089
15,HIECVVCGDKSSGKHYGQFTCEGCKSFFKRSVRRNLTYTCRANRNCPIDQHHRNQCQYCRLKKCQKVGMRREAVQRG [L65Q],0.029 ± 0.048
16,HIECVVCGDKSSGKHYGQFTCEGCKSFFKRSVRRNLTYTCRANRNCPIDQHHRNQCQYCRLKKCRKVGMRREAVQRG [L65R],-0.497 ± 0.044
17,HIECVVCGDKSSGKHYGQFTCEGCKSFFKRSVRRNLTYTCRANRNCPIDQHHRNQCQYCRLKKCSKVGMRREAVQRG [L65S],-0.472 ± 0.059
18,HIECVVCGDKSSGKHYGQFTCEGCKSFFKRSVRRNLTYTCRANRNCPIDQHHRNQCQYCRLKKCTKVGMRREAVQRG [L65T],-0.133 ± 0.052
19,HIECVVCGDKSSGKHYGQFTCEGCKSFFKRSVRRNLTYTCRANRNCPIDQHHRNQCQYCRLKKCVKVGMRREAVQRG [L65V],-0.019 ± 0.035
20,HIECVVCGDKSSGKHYGQFTCEGCKSFFKRSVRRNLTYTCRANRNCPIDQHHRNQCQYCRLKKCYKVGMRREAVQRG [L65Y],-0.069 ± 0.069
21,HIECVVCGDKSSGKHYGQFTCEGCKSFFKRSVRRNLTYTCRANRNCPIDQHHRNQCQYCRLKKCLAVGMRREAVQRG [K66A],0.003 ± 0.037
22,HIECVVCGDKSSGKHYGQFTCEGCKSFFKRSVRRNLTYTCRANRNCPIDQHHRNQCQYCRLKKCLCVGMRREAVQRG [K66C],-0.229 ± 0.056
23,HIECVVCGDKSSGKHYGQFTCEGCKSFFKRSVRRNLTYTCRANRNCPIDQHHRNQCQYCRLKKCLEVGMRREAVQRG [K66E],0.02 ± 0.044
24,HIECVVCGDKSSGKHYGQFTCEGCKSFFKRSVRRNLTYTCRANRNCPIDQHHRNQCQYCRLKKCLFVGMRREAVQRG [K66F],-0.013 ± 0.066

row,Variant,abundance fitness
1,HIECVVCGDKSSGKHYGQFTCEGCKSFFKRSVRRNLTYTCRANRNCPIDQHHRNQCQYCRLKKCLGVGMRREAVQRG [K66G],-0.09 ± 0.034
2,HIECVVCGDKSSGKHYGQFTCEGCKSFFKRSVRRNLTYTCRANRNCPIDQHHRNQCQYCRLKKCLHVGMRREAVQRG [K66H],-0.103 ± 0.068
3,HIECVVCGDKSSGKHYGQFTCEGCKSFFKRSVRRNLTYTCRANRNCPIDQHHRNQCQYCRLKKCLIVGMRREAVQRG [K66I],-0.079 ± 0.061
4,HIECVVCGDKSSGKHYGQFTCEGCKSFFKRSVRRNLTYTCRANRNCPIDQHHRNQCQYCRLKKCLLVGMRREAVQRG [K66L],-0.032 ± 0.038
5,HIECVVCGDKSSGKHYGQFTCEGCKSFFKRSVRRNLTYTCRANRNCPIDQHHRNQCQYCRLKKCLMVGMRREAVQRG [K66M],0.055 ± 0.043
6,HIECVVCGDKSSGKHYGQFTCEGCKSFFKRSVRRNLTYTCRANRNCPIDQHHRNQCQYCRLKKCLNVGMRREAVQRG [K66N],0.058 ± 0.062
7,HIECVVCGDKSSGKHYGQFTCEGCKSFFKRSVRRNLTYTCRANRNCPIDQHHRNQCQYCRLKKCLPVGMRREAVQRG [K66P],-0.785 ± 0.11
8,HIECVVCGDKSSGKHYGQFTCEGCKSFFKRSVRRNLTYTCRANRNCPIDQHHRNQCQYCRLKKCLQVGMRREAVQRG [K66Q],0.055 ± 0.052
9,HIECVVCGDKSSGKHYGQFTCEGCKSFFKRSVRRNLTYTCRANRNCPIDQHHRNQCQYCRLKKCLRVGMRREAVQRG [K66R],-0.021 ± 0.034
10,HIECVVCGDKSSGKHYGQFTCEGCKSFFKRSVRRNLTYTCRANRNCPIDQHHRNQCQYCRLKKCLSVGMRREAVQRG [K66S],0.074 ± 0.036
11,HIECVVCGDKSSGKHYGQFTCEGCKSFFKRSVRRNLTYTCRANRNCPIDQHHRNQCQYCRLKKCLTVGMRREAVQRG [K66T],0.025 ± 0.046
12,HIECVVCGDKSSGKHYGQFTCEGCKSFFKRSVRRNLTYTCRANRNCPIDQHHRNQCQYCRLKKCLVVGMRREAVQRG [K66V],0.041 ± 0.035
13,HIECVVCGDKSSGKHYGQFTCEGCKSFFKRSVRRNLTYTCRANRNCPIDQHHRNQCQYCRLKKCLYVGMRREAVQRG [K66Y],-0.033 ± 0.058
14,HIECVVCGDKSSGKHYGQFTCEGCKSFFKRSVRRNLTYTCRANRNCPIDQHHRNQCQYCRLKKCLKAGMRREAVQRG [V67A],-0.099 ± 0.043
15,HIECVVCGDKSSGKHYGQFTCEGCKSFFKRSVRRNLTYTCRANRNCPIDQHHRNQCQYCRLKKCLKCGMRREAVQRG [V67C],-0.088 ± 0.069
16,HIECVVCGDKSSGKHYGQFTCEGCKSFFKRSVRRNLTYTCRANRNCPIDQHHRNQCQYCRLKKCLKDGMRREAVQRG [V67D],-0.398 ± 0.11
17,HIECVVCGDKSSGKHYGQFTCEGCKSFFKRSVRRNLTYTCRANRNCPIDQHHRNQCQYCRLKKCLKEGMRREAVQRG [V67E],0.013 ± 0.04
18,HIECVVCGDKSSGKHYGQFTCEGCKSFFKRSVRRNLTYTCRANRNCPIDQHHRNQCQYCRLKKCLKFGMRREAVQRG [V67F],-0.115 ± 0.067
19,HIECVVCGDKSSGKHYGQFTCEGCKSFFKRSVRRNLTYTCRANRNCPIDQHHRNQCQYCRLKKCLKGGMRREAVQRG [V67G],-0.26 ± 0.039
20,HIECVVCGDKSSGKHYGQFTCEGCKSFFKRSVRRNLTYTCRANRNCPIDQHHRNQCQYCRLKKCLKHGMRREAVQRG [V67H],-0.157 ± 0.088
21,HIECVVCGDKSSGKHYGQFTCEGCKSFFKRSVRRNLTYTCRANRNCPIDQHHRNQCQYCRLKKCLKIGMRREAVQRG [V67I],-0.093 ± 0.07
22,HIECVVCGDKSSGKHYGQFTCEGCKSFFKRSVRRNLTYTCRANRNCPIDQHHRNQCQYCRLKKCLKKGMRREAVQRG [V67K],-0.127 ± 0.046
23,HIECVVCGDKSSGKHYGQFTCEGCKSFFKRSVRRNLTYTCRANRNCPIDQHHRNQCQYCRLKKCLKLGMRREAVQRG [V67L],-0.118 ± 0.038
